Measured values: publication PMC9670274 (ACS Omega, 2022)
Each block holds one molecule with its values, some of them ahead of it.

Legend:
[1] = target: lactate dehydrogenase from Lactobacillus helsingborgensis (Lactobacillus helsingborgensis); experiment: SEC-MALS
SEC-MALS = target: the molecule itself; experiment: SEC-MALS

stoichiometry N [1]: 8
Molecule: lactate dehydrogenase from Lactobacillus helsingborgensis (enzyme)

B1: lactate dehydrogenase from Lactobacillus johnsonii (enzyme)
chain: MTTYYKGFPQSTREEKLHMVNLDELEHEAKYVMPEAAYYYVASGAENEWTWRNNTQAFNHFQIVPRALTGMQNPELNTEFLGMKLKTPVMICPIACHGIANAEAEIDTAKGAKAAGALFAMSTYANKSVQEVQSAVGDSPRFMQLYLSKNWDFNKMVIEESVKAGFTGFFLTVDALVSGYREANLRTNFTYPVPLAFFNEWNGGKGEGQSVAQMYASSAQNIGPDDIRKIKEIADVPVIVKGVECAEDAMLAIGTGADGIVVSNHGGREVDGAPATIDVLPEIAKAVRSCDHRVPIILDGGVRRGSHVFKALALGADLVGIGRPFLYGLALGGAQGVQSVIEQLNKELLIDMQLTGCKTIEDIKHAKIDHINYSADWGISSTSRSVMKPYPVTKENQLTGEAADAVSGASRH
stoichiometry N (SEC-MALS): 8
